This note sets out measurements from PMC2186984.

In this experiment the target is cell-bound C4b (on EAC4 or EAC14 cells) (human) (UniProt P0C0L4). Briefly: radioligand binding.

B1: radiolabelled C4-binding protein (125I-C4-bp or 131I-C4-bp) (natural protein)
chain: NCGPPPTLSFAAPMDITLTETRFKTGTTLKYTCLPGYVRSHSTQTLTCNSDGEWVYNTFCIYKRCRHPGELRNGQVEIKTDLSFGSQIEFSCSEGFFLIGSTTSRCEVQDRGVGWSHPLPQCEIVKCKPPPDIRNGRHSGEENFYAYGFSVTYSCDPRFSLLGHASISCTVENETIGVWRPSPPTCEKITCRKPDVSHGEMVSGFGPIYNYKDTIVFKCQKGFVLRGSSVIHCDADSKWNPSPPACEPNSCINLPDIPHASWETYPRPTKEDVYVVGTVLRYRCHPGYKPTTDEPTTVICQKNLRWTPYQGCEALCCPEPKLNNGEITQHRKSRPANHCVYFYGDEISFSCHETSRFSAICQGDGTWSPRTPSCGDICNFPPKIAHGHYKQSSSYSFFKEEIIYECDKGYILVGQAKLSCSYSHWSAPAPQCKALCRKPELVNGRLSVDKDQYVEPENVTIQCDSGYGVVGPQSITCSGNRTWYPEVPKCEWETPEGCEQVLTGKRLMQCLPNPEDVKMALEVYKLSLEIEQLELQRDSARQSTLDKEL
modifications: 125I or 131I label (iodinated by means of Enzymobeads)
Regarding B1, the Ka stood at 4.6e+08 M⁻¹, the percent of 125I-C4-bp incorporated into the cells turned out to be 10.5%, the percent of bound C4-bp released in the absence of C2 turned out to be 8% and the stoichiometry N (C4-bp molecules bound per C4b molecule) was 0.43.

B2: C2 (natural protein)
chain: APSCPQNVNISGGTFTLSHGWAPGSLLTYSCPQGLYPSPASRLCKSSGQWQTPGATRSLSKAVCKPVRCPAPVSFENGIYTPRLGSYPVGGNVSFECEDGFILRGSPVRQCRPNGMWDGETAVCDNGAGHCPNPGISLGAVRTGFRFGHGDKVRYRCSSNLVLTGSSERECQGNGVWSGTEPICRQPYSYDFPEDVAPALGTSFSHMLGATNPTQKTKESLGRKIQIQRSGHLNLYLLLDCSQSVSENDFLIFKESASLMVDRIFSFEINVSVAIITFASEPKVLMSVLNDNSRDMTEVISSLENANYKDHENGTGTNTYAALNSVYLMMNNQMRLLGMETMAWQEIRHAIILLTDGKSNMGGSPKTAVDHIREILNINQKRNDYLDIYAIGVGKLDVDWRELNELGSKKDGERHAFILQDTKALHQVFEHMLDVSKLTDTICGVGNMSANASDQERTPWHVTIKPKSQETCRGALISDQWVLTAAHCFRDGNDHSLWRVNVGDPKSQWGKEFLIEKAVISPGFDVFAKKNQGILEFYGDDIALLKLAQKVKMSTHARPICLPCTMEANLALRRPQGSTCRDHENELLNKQSVPAHFVALNGSKLNINLKMGVEWTSCAEVVSQEKTMFPNLTDVREVVTDQFLCSGTQEDESPCKGESGGAVFLERRFRFFQVGLVSWGLYNPCLGSADKNSRKRAPRSKVPPPRDFHINLFRMQPWLRQHLGDVLNFLPL
For B2, the maximum percent of bound 125I-C4-bp released by C2 stood at 50%.
